Patent US12319925B2, “Methods and compositions for genomic integration” (Myeloid Therapeutics, Inc., priority 2021, dated 2025)

System: THP-1 cells
Assay: Integration and expression of HER2 binder-T2A-GFP cargo after LINE-1 plasmid electroporation
Format: cell-based
Settings: 3.7 kb cargo, day 6 post transfection, FIG. 18B
Source text: Next, THP-1 cells (a myeloid, monocytic cell line) were electroporated with a plasmid having LINE-1 sequences and a 3.7 kb cargo encoding a chimeric HER-2 binding receptor, and a split GFP (LINE-1 plasmid Her2-Cd3z-T2A-GFPintron) (FIG. 18A). The cargo is a chimeric receptor that comprises a HER2 binding extracellular domain, a CD3z transmembrane domain, and split GFP reporter. […] Moreover, unlike CRISPR dependent technologies such as Prime editing, retrotransposition can result in integration of large genetic cargo, and, these can be delivered as a single nucleic acid construct.

B1: LINE-1 plasmid Her2-Cd3z-T2A-GFPintron: LINE-1 plasmid with cargo encoding chimeric HER-2 binding receptor and split GFP (SEQ ID NO: 41) (nucleic acid)
DNA: CGGCCGCGGGGGGAGGAGCCAAGATGGCCGAATAGGAACAGCTCCGGTCTACAGCTCCCAGCGTGAGCGACGCAGAAGACGGTGATTTCTGCATTTCCATCTGAGGTACCGGGTTCATCTCACTAGGGAGTGCCAGACAGTGGGCGCAGGCCAGTGTGTGTGCGCACCGTGCGCGAGCCGAAGCAGGGCGAGGCATTGCCTCACCTGGGAAGCGCAAGGGGTCAGGGAGTTCCCTTTCCGAGTCAAAGAAAGGGGTGACGGACGCACCTGGAAAATCGGGTCACTCCCACCCGAATATTGCGCTTTTCAGACCGGCTTAAGAAACGGCGCACCACGAGACTATATCCCACACCTGGCTCGGAGGGTCCTACGCCCACGGAATCTCGCTGATTGCTAGCACAGCAGTCTGAGATCAAACTGCAAGGCGGCAACGAGGCTGGGGGAGGGGCGCCCGCCATTGCCCAGGCTTGCTTAGGTAAACAAAGCAGCAGGGAAGCTCGAACTGGGTGGAGCCCACCACAGCTCAAGGAGGCCTGCCTGCCTCTGTAGGCTCCACCTCTGGGGGCAGGGCACAGACAAACAAAAAGACAGCAGTAACCTCTGCAGACTTAAGTGTCCCTGTCTGACAGCTTTGAAGAGAGCAGTGGTTCTCCCAGCACGCAGCTGGAGATCTGAGAACGGGCAGACTGCCTCCTCAAGTGGGTCCCTGACCCCTGACCCCCGAGCAGCCTAACTGGGAGGCACCCCCCAGCAGGGGCACACTGACACCTCACACGGCAGGGTATTCCAACAGACCTGCAGCTGAGGGTCCTGTCTGTTAGAAGGAAAACTAACAACCAGAAAGGACATCTACACCGAAAACCCATCTGTACATCACCATCATCAAAGACCAAAAGTAGATAAAACCACAAAGATGGGGAAAAAACAGAACAGAAAAACTGGAAACTCTAAAACGCAGAGCGCCTCTCCTCCTCCAAAGGAACGCAGTTCCTCACCAGCAACAGAACAAAGCTGGATGGAGAATGATTTTGATGAGCTGAGAGAAGAAGGCTTCAGACGATCAAATTACTCTGAGCTACGGGAGGACATTCAAACCAAAGGCAAAGAAGTTGAAAACTTTGAAAAAAATTTAGAAGAATGTATAACTAGAATAACCAATACAGAGAAGTGCTTAAAGGAGCTGATGGAGCTGAAAACCAAGGCTCGAGAACTACGTGAAGAATGCAGAAGCCTCAGGAGCCGATGCGATCAACTGGAAGAAAGGGTATCAGCAATGGAAGATGAAATGAATGAAATGAAGCGAGAAGGGAAGTTTAGAGAAAAAAGAATAAAAAGAAATGAGCAAAGCCTCCAAGAAATATGGGACTATGTGAAAAGACCAAATCTACGTCTGATTGGTGTACCTGAAAG
genomic integration and expression of cargo: successfully integrated into the genome and showed prolonged expression
